Laboratory results reported in patent publication US20190194358A1 (ARIZONA BOARD OF REGENTS A BODY CORPORATE OF THE STATE OF …, published 2019).
Ends that are not written are not given here.

How the values were obtained:
[1] = molecular target: T1, transferrin (human, UniProt P02787 20-698); test: SPR
T1 construct: also called TRF; pooled human transferrin (Sigma)

[2] = molecular target: T2, AKT1 (human, UniProt P31749 1-480, limits assumed); test: SPR
T2 construct: GST fusion on the Protoarray; also called AKT1_HUMAN; human AKT1
T2 sequence (P31749 whole entry, the tested form may be a part): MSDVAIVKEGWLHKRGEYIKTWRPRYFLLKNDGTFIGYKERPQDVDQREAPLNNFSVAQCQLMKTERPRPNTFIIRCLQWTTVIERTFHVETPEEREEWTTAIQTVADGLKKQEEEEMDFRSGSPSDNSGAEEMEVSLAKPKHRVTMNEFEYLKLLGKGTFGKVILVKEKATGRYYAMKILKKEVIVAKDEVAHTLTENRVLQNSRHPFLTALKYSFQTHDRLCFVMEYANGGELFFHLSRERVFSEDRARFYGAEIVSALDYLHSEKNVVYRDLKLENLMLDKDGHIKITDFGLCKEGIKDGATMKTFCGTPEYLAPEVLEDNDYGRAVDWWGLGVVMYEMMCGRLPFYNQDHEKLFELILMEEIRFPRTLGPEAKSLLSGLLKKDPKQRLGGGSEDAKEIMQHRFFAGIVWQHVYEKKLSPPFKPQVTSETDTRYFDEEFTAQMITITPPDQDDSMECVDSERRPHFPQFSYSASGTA

[3] = molecular target: T3, PTK2 (human, UniProt Q05397); test: Invitrogen ProtoArray Human Protein Microarray v4.0; biotinylated synbody, fluorescently labelled streptavidin; fluorescence intensity above background
T3 construct: GST fusion on the array
T3 sequence (Q05397 whole entry, the tested form may be a part): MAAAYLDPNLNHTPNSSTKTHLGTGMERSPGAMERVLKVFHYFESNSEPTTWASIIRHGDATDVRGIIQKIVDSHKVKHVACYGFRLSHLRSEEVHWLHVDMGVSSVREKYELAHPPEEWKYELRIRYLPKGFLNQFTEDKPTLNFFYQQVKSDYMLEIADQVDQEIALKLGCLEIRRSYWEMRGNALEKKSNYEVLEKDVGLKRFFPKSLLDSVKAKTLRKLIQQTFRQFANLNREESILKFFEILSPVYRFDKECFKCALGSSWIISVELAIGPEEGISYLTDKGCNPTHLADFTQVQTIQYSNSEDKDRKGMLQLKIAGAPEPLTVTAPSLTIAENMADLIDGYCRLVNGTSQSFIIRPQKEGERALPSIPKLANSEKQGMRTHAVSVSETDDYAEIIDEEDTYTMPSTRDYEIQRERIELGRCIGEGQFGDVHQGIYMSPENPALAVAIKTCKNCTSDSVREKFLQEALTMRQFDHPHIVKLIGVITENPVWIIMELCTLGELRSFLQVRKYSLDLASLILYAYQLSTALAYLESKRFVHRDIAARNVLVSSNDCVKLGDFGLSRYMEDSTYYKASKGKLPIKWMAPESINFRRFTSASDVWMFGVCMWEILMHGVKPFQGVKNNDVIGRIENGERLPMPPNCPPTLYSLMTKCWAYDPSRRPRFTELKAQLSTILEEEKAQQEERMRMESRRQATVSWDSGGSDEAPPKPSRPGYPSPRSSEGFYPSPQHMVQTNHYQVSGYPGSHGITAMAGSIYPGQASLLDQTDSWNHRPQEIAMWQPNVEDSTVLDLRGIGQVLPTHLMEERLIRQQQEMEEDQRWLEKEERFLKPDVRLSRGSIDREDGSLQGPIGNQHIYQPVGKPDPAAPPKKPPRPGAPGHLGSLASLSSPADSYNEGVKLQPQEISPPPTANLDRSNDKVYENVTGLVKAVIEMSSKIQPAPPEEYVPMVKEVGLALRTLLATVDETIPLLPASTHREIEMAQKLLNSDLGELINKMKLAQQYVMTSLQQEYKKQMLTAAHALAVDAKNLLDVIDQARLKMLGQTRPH
Protocol: (§1) The prescribed cover slip was placed over the array and adjusted to remove air bubbles. The array was incubated in a 50 ml conical tube, printed side up, for 1.5 hours at 4 C without shaking. The array was then removed from the conical tube inserted diagonally into the array chamber, kept on ice. 8 ml probing buffer was added to the chamber wall. The cover slip was removed and the array was incubated in probing buffer for 1 minute on ice. The probing buffer was decanted and drained. Two further washings were performed adding 8 ml probing buffer, incubating on ice for 1 minute, and decanting and draining. 5 nM fluorescently labeled streptavidin diluted in 6 ml probing buffer was incubated on the array for 30 minutes on ice in the dark, after which the solution was decanted and drained. Three wash steps were performed, each by adding 8 ml probing buffer, incubating for 1 minute on ice, decanting, and draining. The array was removed from the chamber, centrifuged at 800×g for 5 minutes at room temperature. The array was dried in the dark for 60 minutes at room temperature, after which it was scanned using a fluorescent microarray scanner and data was taken and analyzed.

[4] = molecular target: T4, ANXA1 (human, UniProt P04083); test: as above
T4 construct: GST fusion on the array
T4 sequence (looked up): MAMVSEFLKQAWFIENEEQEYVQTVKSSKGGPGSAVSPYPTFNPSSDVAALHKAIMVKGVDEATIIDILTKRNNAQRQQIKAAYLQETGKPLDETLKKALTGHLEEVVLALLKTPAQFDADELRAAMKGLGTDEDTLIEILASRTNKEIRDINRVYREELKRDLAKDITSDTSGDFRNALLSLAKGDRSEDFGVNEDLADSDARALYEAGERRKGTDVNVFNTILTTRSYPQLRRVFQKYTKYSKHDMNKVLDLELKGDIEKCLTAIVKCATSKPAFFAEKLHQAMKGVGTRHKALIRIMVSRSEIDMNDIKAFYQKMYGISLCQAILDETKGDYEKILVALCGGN
Protocol: as §1

[5] = molecular target: T5, ABHD14B (human, UniProt Q96IU4); test: as above
T5 construct: GST fusion on the array
T5 sequence (looked up): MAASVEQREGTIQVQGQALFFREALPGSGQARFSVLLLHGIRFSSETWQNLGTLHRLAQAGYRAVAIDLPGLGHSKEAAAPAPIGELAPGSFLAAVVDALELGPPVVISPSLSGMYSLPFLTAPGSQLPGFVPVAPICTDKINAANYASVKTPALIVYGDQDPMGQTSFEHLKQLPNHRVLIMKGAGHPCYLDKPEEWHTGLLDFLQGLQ
Protocol: as §1

[6] = molecular target: T6, LACRT (human, UniProt Q9GZZ8); test: as above
T6 construct: GST fusion on the array
T6 sequence (looked up): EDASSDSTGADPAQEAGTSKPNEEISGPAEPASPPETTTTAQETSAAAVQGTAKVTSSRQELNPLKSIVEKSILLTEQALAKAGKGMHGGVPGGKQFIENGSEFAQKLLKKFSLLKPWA
Protocol: as §1

[7] = molecular target: T7, NADK (human, UniProt O95544); test: as above
T7 construct: GST fusion on the array
T7 sequence (looked up): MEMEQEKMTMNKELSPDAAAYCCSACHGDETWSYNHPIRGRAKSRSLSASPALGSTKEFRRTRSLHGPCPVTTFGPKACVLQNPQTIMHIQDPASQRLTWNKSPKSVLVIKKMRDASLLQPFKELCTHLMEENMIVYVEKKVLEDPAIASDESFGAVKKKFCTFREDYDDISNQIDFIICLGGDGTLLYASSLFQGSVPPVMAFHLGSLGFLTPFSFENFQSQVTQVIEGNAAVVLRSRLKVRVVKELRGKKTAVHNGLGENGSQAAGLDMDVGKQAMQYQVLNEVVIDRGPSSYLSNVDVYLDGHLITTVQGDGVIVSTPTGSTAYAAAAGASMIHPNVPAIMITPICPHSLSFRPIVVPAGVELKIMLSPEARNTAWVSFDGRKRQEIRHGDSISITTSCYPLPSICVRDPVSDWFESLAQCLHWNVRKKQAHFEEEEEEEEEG
Protocol: as §1

[8] = molecular target: T8, ROCK2 (human, UniProt O75116); test: as above
T8 construct: GST fusion on the array
T8 sequence (O75116 1-552 limits assumed): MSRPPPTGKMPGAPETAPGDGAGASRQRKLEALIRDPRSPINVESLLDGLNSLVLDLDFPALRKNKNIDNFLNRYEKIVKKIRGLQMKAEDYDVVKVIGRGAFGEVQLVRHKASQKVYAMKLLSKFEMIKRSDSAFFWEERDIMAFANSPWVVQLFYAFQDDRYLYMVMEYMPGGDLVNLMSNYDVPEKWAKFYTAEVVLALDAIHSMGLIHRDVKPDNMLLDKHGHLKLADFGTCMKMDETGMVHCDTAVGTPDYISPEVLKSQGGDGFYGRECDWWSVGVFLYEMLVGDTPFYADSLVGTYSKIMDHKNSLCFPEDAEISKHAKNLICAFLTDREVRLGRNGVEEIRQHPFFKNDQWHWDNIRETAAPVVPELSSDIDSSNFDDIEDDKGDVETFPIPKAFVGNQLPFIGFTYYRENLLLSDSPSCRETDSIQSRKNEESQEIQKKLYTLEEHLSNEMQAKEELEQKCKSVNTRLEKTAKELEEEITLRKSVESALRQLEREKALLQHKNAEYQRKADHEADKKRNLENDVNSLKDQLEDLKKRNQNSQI
Protocol: as §1

T1 sequence (P02787 20-698 limits assumed): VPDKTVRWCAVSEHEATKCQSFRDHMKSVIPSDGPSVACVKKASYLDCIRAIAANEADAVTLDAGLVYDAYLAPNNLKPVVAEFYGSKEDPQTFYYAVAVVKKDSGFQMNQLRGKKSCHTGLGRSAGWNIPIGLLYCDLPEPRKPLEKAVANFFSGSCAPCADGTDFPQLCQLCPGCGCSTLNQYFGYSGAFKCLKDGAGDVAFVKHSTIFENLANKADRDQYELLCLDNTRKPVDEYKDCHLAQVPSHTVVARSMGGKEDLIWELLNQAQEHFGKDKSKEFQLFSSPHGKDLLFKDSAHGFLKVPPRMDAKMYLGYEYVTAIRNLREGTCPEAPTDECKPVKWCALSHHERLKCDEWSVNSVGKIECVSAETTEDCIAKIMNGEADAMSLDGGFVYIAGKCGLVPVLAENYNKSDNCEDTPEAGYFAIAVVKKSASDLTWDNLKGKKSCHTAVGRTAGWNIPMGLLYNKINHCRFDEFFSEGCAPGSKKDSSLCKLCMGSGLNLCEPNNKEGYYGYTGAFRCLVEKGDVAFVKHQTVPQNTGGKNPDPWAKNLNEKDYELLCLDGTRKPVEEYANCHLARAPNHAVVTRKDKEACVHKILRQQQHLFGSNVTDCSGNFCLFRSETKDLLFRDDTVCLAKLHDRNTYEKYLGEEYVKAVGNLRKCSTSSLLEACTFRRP

Kd [1]: ~141 nM | Kd [2]: ~1 nM | binding result [3]: no binding | binding result [4]: binds | binding result [5]: no binding | binding result [6]: no binding | binding result [7]: no binding | binding result [8]: no binding
B1: SYN23-26 (designed binder)
peptide 1: AHKVVPQRQIRHAYNRYGSG
peptide 2: FRGWAHIFFGPHVIYRGGSG
modifications: also: two chains joined by their C-termini to a branching Lys (epsilon/alpha N), Lys linker followed by Cys, Cys thiol biotinylated
notes: Lysine linker followed by cysteine; the thiol of the cysteine biotinylated for the protein array; also called anti-TRF synbody
